Here are results for five compounds from paper PMC4773759 (Scientific Reports, 2016).

Data set [1] deals with T1, rhECE-1 (Homo sapiens, UniProt P42892).
T1 construct: purchased R & D systems
T1 sequence (P42892 1-770): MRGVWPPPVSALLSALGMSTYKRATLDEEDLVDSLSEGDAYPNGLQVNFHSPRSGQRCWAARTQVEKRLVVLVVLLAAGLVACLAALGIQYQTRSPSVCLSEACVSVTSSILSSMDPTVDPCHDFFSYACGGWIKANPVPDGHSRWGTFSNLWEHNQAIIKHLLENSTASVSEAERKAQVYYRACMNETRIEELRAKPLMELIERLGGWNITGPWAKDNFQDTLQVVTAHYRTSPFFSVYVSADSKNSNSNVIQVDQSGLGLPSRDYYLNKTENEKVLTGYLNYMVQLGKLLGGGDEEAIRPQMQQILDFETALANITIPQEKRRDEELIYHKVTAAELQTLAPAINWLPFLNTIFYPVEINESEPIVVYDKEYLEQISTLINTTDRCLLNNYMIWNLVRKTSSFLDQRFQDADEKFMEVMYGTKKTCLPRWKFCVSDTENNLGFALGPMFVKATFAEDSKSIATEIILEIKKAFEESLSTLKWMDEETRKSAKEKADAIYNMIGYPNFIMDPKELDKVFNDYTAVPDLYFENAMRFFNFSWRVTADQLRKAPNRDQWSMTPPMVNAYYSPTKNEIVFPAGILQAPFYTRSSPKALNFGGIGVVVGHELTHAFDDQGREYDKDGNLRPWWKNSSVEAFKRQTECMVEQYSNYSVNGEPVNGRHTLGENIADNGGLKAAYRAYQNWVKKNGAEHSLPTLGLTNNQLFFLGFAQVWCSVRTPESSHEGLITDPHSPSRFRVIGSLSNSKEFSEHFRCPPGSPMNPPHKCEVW
Description: ECE-1 activity, bradykinin-based QFS assay. It is filed as biochemical. The note with it: 10 ng/μL, rhECE-1 0.05 ng/μL, 1 h pre-incubation 37 °C, QFS 40 μM; comparisons with K49-P1-20 or enzyme alone. How it is done: Enzyme activities were measured using a previously described bradykinin-based quenched fluorescent substrate (QFS) assay. Briefly, rhECE-1 or NEP (0.05 ng/μL) was incubated with ECE-1 buffer for 1 h at 37 °C. Where indicated, venom, B. asper myotoxin II or relevant synthetic peptide (10 ng/μL) was added to the reaction mixture and pre-incubated (1 h at 37 °C) with rhECE-1 or rhNEP prior to the addition of substrate ((7-methoxycoumarin-4-yl)acetyl-Arg-Pro-Pro-Gly-Phe-Ser-Ala-Phe-Lys(2, 4-dinitrophenyl); 40 μM final). The specificity of ECE-1 and NEP mediated cleavage was confirmed using the inhibitors CGS35066 (500 nM) and thiorphan (10 µM).
Increase in fluorescence over time (excitation and emission wavelengths of 320 and 405 nm respectively) was taken as evidence of enzyme activity. The specific activity for each enzyme was calculated using a standard curve of known 7-methoxycoumarin concentrations. Enzyme alone (rhECE-1, rhNEP, rhACE-2 and rhIDE) was used as a control in all studies examining the effect of K49-P1-20 on enzyme activity.
Non-linear regression analysis in GraphPad Prism software (version 6.04; Michaelis Menton equation) was used to calculate the enzyme kinetic parameters (Vmax and Km). In all enzyme assays the amount of substrate cleaved over 80 min was determined. Where indicated, enzyme activity in the presence of K49-P1-20 was expressed as a % of the respective control. The enzyme kinetic parameters were determined based on the rate of substrate cleavage.

A further data set deals with trypsin. Description: trypsin mediated cleavage of K49-P1-20.
Data set [2] has as its target T1, rhECE-1. Nature of the data set: Cleavage of endogenous Aβ42 in cerebrospinal fluid by activated ECE-1 (ELISA). It is filed as biochemical. The note with it: CGS35066 500 nM, rhECE-1 0.04 ng/μL, K49-P1-20 300 ng/μL, 4 h. On the procedure:
Aβ42 levels were measured using a commercially available Human Aβ42 ELISA kit (Life technologies), according to the manufacturer’s instructions. rhECE-1 (0.04 ng/μL) alone, rhECE + K49-P1-20 (300 ng/μL) or rhECE + K49-P1-20 + CGS35066 (500 nM) was incubated at 37 °C for 1 hr. Cerebrospinal fluid (diluted 1:10 in assay buffer) from patients with Alzheimer’s disease was added to each reaction mixture. The final volume of cerebrospinal fluid added was kept to 1/10th the final volume of reaction mixture, which was adjusted using ECE-1 buffer. Aliquots of equal volume were taken at 0 and 4 h, snap frozen in dry ice and stored at −80 °C until analysed by ELISA. The amount of Aβ42 remaining after 4 h was expressed as a % of initial.
On the technique in general: An ELISA detects its analyte on a solid surface through an enzyme-linked reagent.

Entries after “also recorded” stand apart in the source; their conditions may differ.

Consider “K49-P9-34: synthetic peptide from the N-terminal region of B. asper myotoxin II”, for which the “Stimulation of ECE-1 activity (in words)” value with rhECE-1 [1] was “significantly less”.
As for SLFELGKMILQETGKNPAKS, the cleaved bond result in the data set on trypsin is recorded as “K7-M8”.
For `O=C(O)C(Cc1ccc2c(c1)oc1ccccc12)NCP(=O)(O)O` (centres unmarked) [CGS35066], at rhECE-1 [2], the “Effect on the Aβ42 decrease by ECE-1 + K49-P1-20 in cerebrospinal fluid” value is reported as “blocked”.
As for B. asper myotoxin II, in the data set with rhECE-1 [1], the “Stimulation of ECE-1 activity (in words)” value was “ECE-1 stimulation”.
Still for that read-out and setting: the same measure for “K49-P1-34: synthetic peptide corresponding to the N-terminal region of B. asper myotoxin II”: “mimicked the stimulator effects; also recorded: No significant difference”.
